US6511816B1, “DNA gyrase-inhibiting proteins” (priority 1996, dated 2003)

How the values were obtained:
[1] = molecular target: Escherichia coli DNA gyrase (subunit A and subunit B) (Escherichia coli) (UniProt P0AES4); assay: cell-based or functional assay
[2] = tested on: E. coli GI724 (pCA17) strain; assay: Microscopic observation of strains expressing a large amount of DGI; assay type: cell-based, Escherichia coli; conditions: tryptophan-induced expression from pCA17
[3] = molecular target: Escherichia coli DNA gyrase (subunit A and subunit B) (Escherichia coli, UniProt P0AES4+P0AES6)
Protocol: Using the purified DGI obtained in Example 4 above, DGI activity, i.e. the inhibiting activity against DNA gyrase activity (supercoiling activity), was measured. Each 5 μl of DNA gyrase subunit A (1U) and subunit B (1U) were each added to a reaction mixture for activity measurement (20 mM Tris-HCl (pH7.5), 20 mM KCl, 4 mM MgCl2, 4 mM spermidine, 1.5 mM ATP, 1 mM DTT, 30 μg/ml t-RNA, 15 μg/ml BSA and 0.1 μg relaxed pBR322 DNA), and DGI (protein concentration 25, 12.5, 6.25, 3.13, 1.56, 0.78 or 0.39 μg/ml) was added thereto for the reaction for 1 hour at 37° C. After stopping the reaction by addition of 3 μl of proteinase K (1 mg/ml) while keeping the temperature at 37° C. for 30 minutes, the reaction mixture was subjected to electrophoresis with 0.8% agarose gel, dyed with a 0.5 μg/ml solution of ethidium bromide and photographed under radiation of the ultraviolet rays. The amount of super-coiled DNA was measured with a densitometer (Shimadzu-wavelength flying spot scanner CS-9000, available from Shimadzu Seisakusho Co.). The presence or absence of DNA gyrase-inhibiting activity was assayed by comparing the supercoiled DNA amounts obtained when DGI protein was added, with those obtained when no DGI protein was added.
0.5 μg of pBR322 DNA (the supercoiled type, available from Takara Shuzo Co.) and 1 μl of topoisomerase I (available from Takara Shuzo Co.)(6 U/μl) were added to 20 μl of a reaction liquid (35 mM Tris-HCl (pH 8.0), 72 mM KCl, 5 mM MgCl2, 5 mM DTT, 5 mM spermidine and 0.01% bovine serum albumin) and reacted for 2 hours at 37° C. to prepare relaxed pBR322 DNA. […] As for the enzyme activity, the enzyme amount necessary to convert 50% of the amount of the relaxed plasmid DNA into the supercoiled DNA was expressed as one unit (U).

E. coli GI724 strain = assay: Growth of antisense RNA-expressing strain with tryptophan induction; assay type: cell-based, Escherichia coli; conditions: for turbidity OD600 / number of living cells: tryptophan added
Protocol: An antisense expression vector was prepared by inserting a fragment containing the translation region of dgi gene (a fragment corresponding to the 255th-728th bases of Sequence ID NO:6) into the downstream of tryptophan (trp) promoter of vector plasmid pLEX (available from Invitrogen Co.).
The vector was introduced into E. coli GI724 strain. The antisense RNA-expressing strain thus obtained was cultured under the condition of with or without adding tryptophan, and the change with the lapse of time in the number of living cells and turbidity (OD600) was measured. When expression induction by adding tryptophan was not carried out, the number of living cells and turbidity after 24 hours were increased up to 1×10^9 cfu/ml and 1.0, respectively. […] It has been reported that such abnormality in morphology was also observed when E. coli was treated with a new quinolone gyrase inhibitor (Takeshi Nishino et al., Chemotherapy, vol. 41(s-5), pp. 50-66, 1993). From the above result, it is considered that in E. coli wherein expression of dgi antisense RNA is induced, expression of dgi gene is repressed and the normal growth of bacteria is inhibited. In other words, a medical agent which inhibits the expression of dgi gene is useful as an antimicrobial agent.

Sequence of Escherichia coli DNA gyrase (subunit A and subunit B) (P0AES4 whole entry, one chain of several): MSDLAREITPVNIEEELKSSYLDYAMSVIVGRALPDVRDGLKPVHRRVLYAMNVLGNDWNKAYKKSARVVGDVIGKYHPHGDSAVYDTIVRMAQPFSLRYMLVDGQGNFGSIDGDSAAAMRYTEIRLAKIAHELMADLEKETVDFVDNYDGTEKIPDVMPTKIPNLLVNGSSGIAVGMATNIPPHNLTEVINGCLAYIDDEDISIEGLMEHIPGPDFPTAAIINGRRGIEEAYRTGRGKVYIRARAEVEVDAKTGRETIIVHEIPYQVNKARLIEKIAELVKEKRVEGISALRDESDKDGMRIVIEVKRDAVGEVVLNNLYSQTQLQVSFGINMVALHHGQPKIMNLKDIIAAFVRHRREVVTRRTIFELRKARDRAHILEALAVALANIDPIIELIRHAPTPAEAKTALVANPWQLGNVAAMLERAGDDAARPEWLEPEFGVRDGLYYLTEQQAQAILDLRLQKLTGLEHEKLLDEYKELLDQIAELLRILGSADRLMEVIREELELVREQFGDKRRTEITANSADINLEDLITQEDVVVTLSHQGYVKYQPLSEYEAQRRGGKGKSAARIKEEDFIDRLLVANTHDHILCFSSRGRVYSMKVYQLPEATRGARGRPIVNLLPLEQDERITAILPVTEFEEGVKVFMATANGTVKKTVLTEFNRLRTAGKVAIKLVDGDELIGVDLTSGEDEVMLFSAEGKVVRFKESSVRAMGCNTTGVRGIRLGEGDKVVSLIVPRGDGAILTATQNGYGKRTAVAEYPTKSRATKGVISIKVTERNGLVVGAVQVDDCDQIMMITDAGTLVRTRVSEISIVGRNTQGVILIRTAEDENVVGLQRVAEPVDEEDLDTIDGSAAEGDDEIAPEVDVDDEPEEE
Sequence of Escherichia coli DNA gyrase (subunit A and subunit B) (Escherichia coli) (P0AES4 2-875 limits assumed): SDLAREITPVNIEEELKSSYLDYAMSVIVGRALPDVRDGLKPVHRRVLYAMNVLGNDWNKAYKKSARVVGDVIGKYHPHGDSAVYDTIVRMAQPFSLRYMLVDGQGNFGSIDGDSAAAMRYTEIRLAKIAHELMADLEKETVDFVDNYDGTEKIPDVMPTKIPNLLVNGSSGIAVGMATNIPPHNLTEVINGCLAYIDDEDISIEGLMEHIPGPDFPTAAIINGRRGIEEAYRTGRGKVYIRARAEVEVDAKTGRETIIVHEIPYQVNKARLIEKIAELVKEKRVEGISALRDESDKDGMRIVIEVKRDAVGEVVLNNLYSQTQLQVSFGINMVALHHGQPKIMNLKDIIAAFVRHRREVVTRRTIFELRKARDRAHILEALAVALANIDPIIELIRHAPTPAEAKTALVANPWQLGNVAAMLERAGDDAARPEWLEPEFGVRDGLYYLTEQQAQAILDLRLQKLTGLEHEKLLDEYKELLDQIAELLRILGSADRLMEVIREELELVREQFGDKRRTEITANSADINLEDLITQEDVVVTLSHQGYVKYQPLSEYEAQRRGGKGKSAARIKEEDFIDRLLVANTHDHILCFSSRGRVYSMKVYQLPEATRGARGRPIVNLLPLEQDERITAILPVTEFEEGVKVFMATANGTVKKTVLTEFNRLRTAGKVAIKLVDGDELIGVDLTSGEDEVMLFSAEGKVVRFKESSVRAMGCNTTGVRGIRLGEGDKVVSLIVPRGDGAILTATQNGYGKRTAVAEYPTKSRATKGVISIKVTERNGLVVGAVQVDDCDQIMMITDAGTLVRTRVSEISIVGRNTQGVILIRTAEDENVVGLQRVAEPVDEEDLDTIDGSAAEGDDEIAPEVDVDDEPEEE

DNA gyrase-inhibiting protein (DGI) derived from Escherichia coli (from UniProt B2TYH1 1-157)
supercoiling activity of DNA gyrase (relaxed pBR322 DNA, agarose gel) [1]: 8 µg/ml
supercoiling activity of DNA gyrase (relaxed pBR322 DNA, agarose gel, densitometry) [1]: > 6 µg/ml

B1: DGI: about 18 kDa Escherichia coli protein inhibiting DNA gyrase supercoiling activity, Sequence ID NO:7 (protein)
chain: MNYEIKQEEKRTVAGFHLVGPWEQTVKKGFEQLMMWVDSKNIVPKEWVAVYYDNPDETPAEKLRCDTVVTVPGYFTLPENSEGVILTEITGGQYAVAVARVVGDDFAKPWYQFFNSLLQDSAYEMLPKPCFEVYLNNGAEDGYWDIEMYVAVQPKHH
modifications: Escherichia coli strain KL16
morphology of strains expressing a large amount of DGI [2]: lank and elongated
concentration perfectly inhibiting the supercoiling activity of DNA gyrase ([3]; purified DGI isolated from Fraction No. 32 by Sephadex G-75, relaxed pBR322 DNA, subunit A 1 U, subunit B 1 U): 8 µg/mL
concentration completely inhibiting the supercoiling activity of DNA gyrase ([3]; recombinant purified DGI of Example 4, 1 hour at 37° C., tested 25 to 0.39 μg/ml): ≥ 6 µg/mL
conversion to supercoiled DNA at concentration lower than 6 μg/ml ([3]; recombinant purified DGI of Example 4, below 6 μg/ml): ended in an incomplete state

B2: dgi gene antisense RNA: antisense RNA expressed from pLEX carrying the dgi fragment (255th-728th bases of Sequence ID NO:6) (nucleic acid)
antisense: ATGAACTACGAGATTAAGCAGGAAGAGAAACGTACCGTTGCAGGTTTCCATCTCGTTGGCCCGTGGGAACAGACGGTAAAGAAAGGCTTTGAGCAGTTGATGATGTGGGTAGATAGCAAAAATATTGTGCCGAAGGAGTGGGTTGCTGTCTATTACGACAATCCAGATGAAACACCCGCCGAAAAATTACGCTGCGACACCGTCGTGACGGTGCCGGGTTACTTTACGCTTCCCGAAAACAGTGAGGGCGTCATTCTGACAGAAATTACAGGTGGTCAGTATGCGGTGGCGGTAGCTCGTGTAGTCGGTGATGATTTTGCTAAACCCTGGTATCAGTTCTTTAATAGTCTCTTGCAGGACAGTGCTTATGAAATGTTACCAAAGCCCTGCTTCGAGGTTTATTTGAACAATGGCGCGGAAGATGGGTACTGGGATATCGAAATGTATGTTGCGGTGCAGCCAAAACATCACTAA
modifications: antisense orientation RNA; Escherichia coli strain KL16
morphology of bacteria (E. coli GI724 strain; antisense RNA-expressing strain): elongation of the bacteria was observed
turbidity OD600 (E. coli GI724 strain; 8 hours after the addition): 0.4
number of living cells (E. coli GI724 strain; 8 hours after the addition (from 4×10^7 cfu/ml)): 1×10^8 cfu/ml
number of living cells (E. coli GI724 strain; after 24 hours): 5×10^6 cfu/ml
turbidity OD600 (E. coli GI724 strain; after 24 hours): ~0.5
